These results are taken from PMC2946066 (Toxicon : official journal of the International Society on …, 2010).

The target of this assay is CFP/B-Lc (BoNT/B protease fused to CFP) (Clostridium botulinum, BoNT type B; …, UniProt P10844). Briefly: pull-down.

B1: YFP/B10 (VHH BLc-B10 fused to an amino terminal streptavidin binding peptide and YFP) (VHH)
VHH: QLQLVESGGGMVQPGGSLRLSCAASGFTFSTYDMSWVRQAPGKGPEWVSIINAGGGSTYYAASVKGRFAISRDNAKNTLYLQMNNLKPEDTALYYCARVASYYCRGYVCSPPEFDYWGQGTQVTVSS
Consider B1, for which the binding result is on record as “binds”.
